Source: publication PMC4633281

Key:
[1] = target: TamA with loop-His6 sequence (E. coli) (UniProt P0ADE4); experiment: magnetic contrast neutron reflectometry
[2] = target: reconstituted TAM (TamA loop-His6 with purified TamB) in a supported membrane (E. coli) (UniProt P0ADE4); experiment: magnetic contrast neutron reflectometry
[3] = target: TamA with loop-His6 sequence (E. coli) (UniProt P0ADE4); experiment: quartz crystal microbalance with dissipation

| Substance | surface excess of Ag43, fold over that with the complete TAM [1] [fold] | volume fraction of Ag43 in the membrane layer [1] [%] | volume fraction of Ag43 in the membrane layer [2] [%] | decrease in frequency (QCM-D) [3] [Hz] | frequency response (QCM-D) [3] [Hz] |
| --- | --- | --- | --- | --- | --- |
| Ag43, urea-denatured, purified (from UniProt P39180 53-1039) (natural protein) | 3 | 45 | 11 | – | – |
| TamB, soluble, purified from the periplasm (domain or fragment) | – | – | – | 95 | 30 |
